The target of assay [1] is Xenopus activin receptor xActRIIB, expressed in Xenopus embryos from injected synthetic RNA (Xenopus) (UniProt P27041). Nature of the assay: cell-based or functional assay.
Assay [2] concerns the target T1, Mouse activin receptor, full length (encoded by clone pmActR2), expressed on transfected COS cells (mouse, UniProt P27038 20-513).
T1 construct: also called mActRII; ActRII
Briefly: competition with 125I activin A on COS cells transfected with pmActR2. The method, then: (§1) 10⁵ COS cells transfected with either pmActR1 or pmActR2, or 10⁶ untransfected COS cells, were plated in 6 well dishes and allowed to grow overnight. The cells were washed 2× with HDB, 0.1% BSA, and incubated at 22° for 90 minutes in 0.5 ml HDB, 0.1% BSA containing 100,000 cpm (approximately 1 ng, 75 pM) ¹²⁵I activin A (5 μg activin A was iodinated by chloramine T oxidation to a specific activity of 50-90 μCi/μg; iodinated activin A was purified on a 0.7×20 cm G-25 column) and varying amounts of unlabeled competitor hormone. Following binding, the cells were washed 3× with cold HDB, solubilized in 0.5 ml 0.5 N NaOH, removed from the dish and radioactivity was measured in a gamma counter. Data presented in FIG. 5 are expressed as % specific binding, where 100% specific binding is the difference between binding in the absence of competitor and binding in the presence of a 100 fold molar excess of unlabeled activin A. Binding parameters were determined using the program LIGAND [Munson P. J. and Rodbard, D., Anal. Biochem. 107:220-259 (1980)].
This affinity and specificity of binding match those observed following binding of activin A to a number of other activin-responsive cell types. […]

Assay [3] has as its target T1, Mouse activin receptor, full length …. Briefly: 125I activin A competition radioreceptor assay on COS cells transfected with pmActR2; LIGAND. The method, then:
as §1
(§2) To verify that the cloned receptor is activin specific, competition binding experiments were performed on COS cells transiently transfected with either pmActR1 or pmActR2. […] This binding affinity is consistent with that measured on other activin-responsive cell types [see, for example, Campen, C. A. and Vale, W., Biochem. Biophys. Res. Comm. […]

For assay [4], the target named is T2, Mouse activin receptor, C-terminally truncated (encoded by clone pmActR1), expressed on transfected COS cells (mouse, UniProt P27038 20-354).
T2 construct: pmActR1 codes for a protein of 342 amino acids, the last 17 of them from the vector; It lacks a complete intracellular kinase domain; the real chain is truncated and its signal peptide (1-19) is removed
Briefly: 125I activin A competition radioreceptor assay on COS cells transfected with pmActR1; Scatchard/LIGAND. The procedure:
as §1, §2

T1 sequence (P27038 20-513): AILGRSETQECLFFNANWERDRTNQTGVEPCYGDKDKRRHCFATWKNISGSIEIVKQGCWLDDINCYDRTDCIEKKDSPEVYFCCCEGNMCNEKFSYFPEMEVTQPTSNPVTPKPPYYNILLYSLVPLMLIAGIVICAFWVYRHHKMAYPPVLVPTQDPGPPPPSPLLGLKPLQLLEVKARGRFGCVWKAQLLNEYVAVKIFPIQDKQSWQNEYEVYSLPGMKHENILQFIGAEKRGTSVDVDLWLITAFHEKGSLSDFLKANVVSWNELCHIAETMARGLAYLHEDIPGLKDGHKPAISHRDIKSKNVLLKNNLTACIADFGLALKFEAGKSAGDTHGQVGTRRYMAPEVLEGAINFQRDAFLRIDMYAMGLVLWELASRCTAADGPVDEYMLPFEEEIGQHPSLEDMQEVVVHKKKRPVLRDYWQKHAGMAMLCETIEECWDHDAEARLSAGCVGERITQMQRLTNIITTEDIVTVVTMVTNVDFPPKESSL
Xenopus activin receptor xActRIIB, expressed in Xenopus embryos from injected synthetic RNA (Xenopus), sequence (P27041 other isoform, or with tags, fused parts or gaps): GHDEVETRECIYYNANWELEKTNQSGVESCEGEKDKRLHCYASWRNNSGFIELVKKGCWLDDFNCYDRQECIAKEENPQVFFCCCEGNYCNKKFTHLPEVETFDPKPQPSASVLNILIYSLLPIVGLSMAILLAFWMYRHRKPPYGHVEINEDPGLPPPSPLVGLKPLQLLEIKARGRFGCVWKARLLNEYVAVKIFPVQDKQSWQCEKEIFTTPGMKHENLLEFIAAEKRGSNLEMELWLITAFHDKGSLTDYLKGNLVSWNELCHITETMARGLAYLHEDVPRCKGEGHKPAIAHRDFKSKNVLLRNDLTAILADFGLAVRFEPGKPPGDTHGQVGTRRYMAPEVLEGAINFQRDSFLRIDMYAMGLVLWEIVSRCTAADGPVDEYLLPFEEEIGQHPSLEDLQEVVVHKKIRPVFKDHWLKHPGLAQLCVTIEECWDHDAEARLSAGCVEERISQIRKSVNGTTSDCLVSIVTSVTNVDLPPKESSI
T2 sequence (P27038 20-354 limits assumed, form in doubt): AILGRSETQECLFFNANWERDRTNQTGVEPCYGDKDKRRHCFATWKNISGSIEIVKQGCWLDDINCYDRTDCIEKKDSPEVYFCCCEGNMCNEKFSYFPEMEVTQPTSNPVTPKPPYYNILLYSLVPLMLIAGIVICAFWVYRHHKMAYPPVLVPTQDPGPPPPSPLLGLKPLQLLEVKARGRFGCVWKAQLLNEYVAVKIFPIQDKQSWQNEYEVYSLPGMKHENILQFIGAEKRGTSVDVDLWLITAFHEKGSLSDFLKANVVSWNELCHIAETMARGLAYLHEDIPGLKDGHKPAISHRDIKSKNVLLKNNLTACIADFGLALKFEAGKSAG

In assay [1], “Purified porcine activin A (from UniProt P03970 309-424) (ligand)” displayed a muscle-specific actin RNA in animal caps (ribonuclease protection assay); sensitivity to activin against control embryos, embryos injected with 0.4 ng xActRIIB RNA of 10 fold and a muscle-specific actin RNA in animal caps (ribonuclease protection assay); sensitivity to activin against control embryos, embryos injected with 2.0 ng xActRIIB RNA of 100 fold.

B1: Recombinant human (rh) activin B (ligand, UniProt P09529 293-407, looked up)
chain: GLECDGRTNLCCRQQFFIDFRLIGWNDWIIAPTGYYGNYCEGSCPAYLAGVPGSASSFHTAVVNQYRMRGLNPGTVNSCCIPTKLSTMSMLYFDDEYNIVKRDVPNMIVEECGCA
B1: the binding result in assay [2] is “binds”.

B2: Recombinant human (rh) inhibin A (ligand)
chain 1: STPLMSWPWSPSALRLLQRPPEEPAAHANCHRVALNISFQELGWERWIVYPPSFIFHYCHGGCGLHIPPNLSLPVPGAPPTPAQPYSLLPGAQPCCAALPGTMRPLHVRTTSDGGYSFKYETVPNLLTQHCACI
chain 2: GLECDGKVNICCKKQFFVSFKDIGWNDWIIAPSGYHANYCEGECPSHIAGTSGSSLSFHSTVINHYRMRGHSPFANLKSCCVPTKLRPMSMLYYDDGQNIIKKDIQNMIVEECGCS
Turning to B2, the “fold lower potency than activin A in competition” value in assay [2] was roughly 10 fold.

B3: Recombinant human (rh) activin A (ligand, UniProt P08476 311-426, looked up)
chain: GLECDGKVNICCKKQFFVSFKDIGWNDWIIAPSGYHANYCEGECPSHIAGTSGSSLSFHSTVINHYRMRGHSPFANLKSCCVPTKLRPMSMLYYDDGQNIIKKDIQNMIVEECGCS
notes: also called 125I activin A; iodinated activin A
B3: the Kd in assay [3] and in assay [4] was 0.18 nM each time.

Values taken from patent US20050186593A1 (SALK INSTITUTE FOR BIOLOGICAL STUDIES, published 2005).
